{"source": "paper PMC10786891", "about": "“Massively parallel profiling of RNA-targeting CRISPR-Cas13d”", "binders": {"B1": {"name": "target 2 MT 5'PFS UAA 3'PFS CUA (mixed)", "RNA 1": "CACCCGUGCAAAAUUGCAGGGGUCUAAAACCUUCUCCAAAUUGUUUCAUCCU", "RNA 2": "GGGAAUGGAUCCACAUCUACGAAUUCUAAAGGAUGAAACAAUUUGGAGAAGCUAAGAUCGGAAGAGCACACGU"}, "B2": {"name": "target 2 MT 5'PFS UAG 3'PFS CGA (mixed)", "RNA 1": "B1 RNA 1", "RNA 2": "B1 RNA 2 with A29G, U53G"}, "B3": {"name": "target 2 MT 5'PFS AUA 3'PFS UCC (mixed)", "RNA 1": "B1 RNA 1", "RNA 2": "B1 RNA 2 with U27A, A28U, C52U, U53C, A54C"}, "B4": {"name": "target 2 MT 5'PFS UAA 3'PFS CUC (mixed)", "RNA 1": "B1 RNA 1", "RNA 2": "B1 RNA 2 with A54C"}, "B5": {"name": "target 2 MT 5'PFS CGG 3'PFS ACU (mixed)", "RNA 1": "B1 RNA 1", "RNA 2": "B1 RNA 2 with U27C, A28G, A29G, C52A, U53C, A54U"}, "B6": {"name": "target 2 MT 5'PFS AGC 3'PFS UUU (mixed)", "RNA 1": "B1 RNA 1", "RNA 2": "B1 RNA 2 with U27A, A28G, A29C, C52U, A54U"}, "B7": {"name": "target 2 MT 5'PFS GAA 3'PFS UUC (mixed)", "RNA 1": "B1 RNA 1", "RNA 2": "B1 RNA 2 with U27G, C52U, A54C"}, "B8": {"name": "target 2 MT 5'PFS CGG 3'PFS ACC (mixed)", "RNA 1": "B1 RNA 1", "RNA 2": "B1 RNA 2 with U27C, A28G, A29G, C52A, U53C, A54C"}, "B9": {"name": "target 2 MT 5'PFS UAG 3'PFS CGG (mixed)", "RNA 1": "B1 RNA 1", "RNA 2": "B1 RNA 2 with A29G, U53G, A54G"}, "B10": {"name": "target 2 MT 5'PFS AUA 3'PFS UCG (mixed)", "RNA 1": "B1 RNA 1", "RNA 2": "B1 RNA 2 with U27A, A28U, C52U, U53C, A54G"}, "B11": {"name": "target 2 MT 5'PFS CGG 3'PFS ACG (mixed)", "RNA 1": "B1 RNA 1", "RNA 2": "B1 RNA 2 with U27C, A28G, A29G, C52A, U53C, A54G"}, "B12": {"name": "target 2 MT 5'PFS UUU 3'PFS AGA (mixed)", "RNA 1": "B1 RNA 1", "RNA 2": "B1 RNA 2 with A28U, A29U, C52A, U53G"}, "B13": {"name": "target 2 MT 5'PFS AUA 3'PFS UCA (mixed)", "RNA 1": "B1 RNA 1", "RNA 2": "B1 RNA 2 with U27A, A28U, C52U, U53C"}, "B14": {"name": "target 2 MT 5'PFS GUC 3'PFS AUU (mixed)", "RNA 1": "B1 RNA 1", "RNA 2": "B1 RNA 2 with U27G, A28U, A29C, C52A, A54U"}, "B15": {"name": "target 1 C7U,A18C (mixed)", "RNA 1": "CACCCGUGCAAAAAUGCAGGGGUCUAAAACUGAGCGGAUAACCUCUCUAUGG", "RNA 2": "GGGAAUGGAUCCACAUCUACGAAUUCGUACCAUCGAGAGGUUAUUCGCUCACCGAGAUCGGAAGAGCACACGU"}, "B16": {"name": "target 1 A9C,G15A (mixed)", "RNA 1": "B15 RNA 1", "RNA 2": "B15 RNA 2 with C34A, G37A, A43C, U45C"}, "B17": {"name": "target 1 G5A,C7A (mixed)", "RNA 1": "B15 RNA 1", "RNA 2": "B15 RNA 2 with C34A, U45A, G47A"}}, "note": "Numbering of substitutions follows the chain as printed. Numbers in names are those of the source."}
{"target": "T1, EsCas13d, nuclease-dead (Eubacterium siraeum, UniProt B0MS50, R295A;H300A;R849A;H854A)", "T1 sequence": "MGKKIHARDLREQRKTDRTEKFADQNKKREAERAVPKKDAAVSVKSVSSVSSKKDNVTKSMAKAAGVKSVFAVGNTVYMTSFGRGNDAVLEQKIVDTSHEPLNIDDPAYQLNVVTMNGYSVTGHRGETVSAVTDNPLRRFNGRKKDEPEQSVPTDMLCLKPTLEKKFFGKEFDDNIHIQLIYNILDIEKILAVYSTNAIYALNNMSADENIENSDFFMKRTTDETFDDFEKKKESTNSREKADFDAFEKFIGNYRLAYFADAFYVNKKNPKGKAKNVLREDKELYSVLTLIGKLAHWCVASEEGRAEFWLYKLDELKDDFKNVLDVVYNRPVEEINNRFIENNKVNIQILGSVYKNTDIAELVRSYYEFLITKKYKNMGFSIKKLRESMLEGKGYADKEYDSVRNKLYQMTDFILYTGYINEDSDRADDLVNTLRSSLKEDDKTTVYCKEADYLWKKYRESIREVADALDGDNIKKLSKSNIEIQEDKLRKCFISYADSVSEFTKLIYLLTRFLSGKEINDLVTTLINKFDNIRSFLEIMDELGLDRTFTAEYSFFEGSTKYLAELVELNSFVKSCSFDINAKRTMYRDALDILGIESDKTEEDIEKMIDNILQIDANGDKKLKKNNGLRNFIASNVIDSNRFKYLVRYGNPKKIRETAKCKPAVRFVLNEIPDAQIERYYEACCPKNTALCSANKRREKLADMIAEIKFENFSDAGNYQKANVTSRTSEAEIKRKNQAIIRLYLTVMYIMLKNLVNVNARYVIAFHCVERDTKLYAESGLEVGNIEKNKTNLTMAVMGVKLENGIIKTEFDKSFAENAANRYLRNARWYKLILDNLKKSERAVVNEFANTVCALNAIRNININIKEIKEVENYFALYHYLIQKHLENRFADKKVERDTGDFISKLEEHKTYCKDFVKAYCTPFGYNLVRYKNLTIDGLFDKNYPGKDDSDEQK", "assay": "crRNA (strand 1, pre-loaded); Mg2+; 40 mM Tris-HCl pH 7.5, 150 mM NaCl, 6 mM MgCl2, 1 mM DTT, 0.1% Tween-20, 0.2 mg/ml BSA; 25 C; 10 min per concentration, then washed", "conditions": "tags: His6-TwinStrep-SUMO cleaved; N-terminal SNAP kept (SNAP-Surface 488); label: 3' end held by stalled T7 RNA polymerase", "units": {"Kd": "nM"}}
{"binder": "B1", "Kd": "4.6 ± 0.5"}
{"binder": "B2", "Kd": "2.55 ± 0.33"}
{"binder": "B3", "Kd": "15.6 ± 2.1"}
{"binder": "B4", "Kd": "6.7 ± 0.9"}
{"binder": "B5", "Kd": "6.8 ± 1.1"}
{"binder": "B6", "Kd": "20 ± 4"}
{"binder": "B7", "Kd": "~70"}
{"binder": "B8", "Kd": "12 ± 1.9"}
{"binder": "B9", "Kd": "2.89 ± 0.35"}
{"binder": "B10", "Kd": "20 ± 6"}
{"binder": "B11", "Kd": "4.05 ± 0.24"}
{"binder": "B12", "Kd": "7.3 ± 0.8"}
{"binder": "B13", "Kd": "12.3 ± 2.6"}
{"binder": "B14", "Kd": "11.2 ± 1.3"}
{"binder": "B15", "Kd": "55 ± 5"}
{"binder": "B16", "Kd": "35 ± 5"}
{"binder": "B17", "Kd": "10.3 ± 0.6"}
